Results reported in doi:10.1101/2020.02.14.947937 (bioRxiv, 2020).

Target: the molecule itself
Test: cryo-EM structure

B1: mouse homomeric 5-HT3A receptor (receptor, UniProt P23979 24-489, looked up)
chain: SRRRATQARDTTQPALLRLSDHLLANYKKGVRPVRDWRKPTTVSIDVIMYAILNVDEKNQVLTTYIWYRQYWTDEFLQWTPEDFDNVTKLSIPTDSIWVPDILINEFVDVGKSPNIPYVYVHHRGEVQNYKPLQLVTACSLDIYNFPFDVQNCSLTFTSWLHTIQDINITLWRSPEEVRSDKSIFINQGEWELLEVFPQFKEFSIDISNSYAEMKFYVIIRRRPLFYAVSLLLPSIFLMVVDIVGFCLPPDSGERVSFKITLLLGYSVFLIIVSDTLPATAIGTPLIGVYFVVCMALLVISLAETIFIVRLVHKQDLQRPVPDWLRHLVLDRIAWILCLGEQPMAHRPPATFQANKTDDCSGSDLLPAMGNHCSHVGGPQDLEKTPRGRGSPLPPPREASLAVRGLLQELSSIRHFLEKRDEMREVARDWLRVGYVLDRLLFRIYLLAVLAYSITLVTLWSIWHYS
modifications: N-linked carbohydrates
stoichiometry N: 5
